Target: GAL4 DNA-binding domain fusion of the neuroglian^167 cytoplasmic domain with Y1234F (Drosophila)
Test: two-hybrid

reduction of binding against wild type (β-galactosidase): 50%
Substance: GAL4 activation domain–Drosophila ankyrin fusion protein (from UniProt Q24241 1-1549) (natural protein)

From PMC2133023
